System: blood clots
Assay: Blood clot resolution in murine mesentery venules
Format: in vivo
From the text: Here, a novel thrombolytic nanoagent is realized by conjugating directly the clinical formulation of tPA to the porous structure of soft discoidal polymeric nanoconstructs (tPA-DPNs).

B1: Tissue plasminogen activator (protein, UniProt P00750 36-562, looked up)
Tissue-type plasminogen …: SYQVICRDEKTQMIYQQHQSWLRPVLRSNRVEYCWCNSGRAQCHSVPVKSCSEPRCFNGGTCQQALYFSDFVCQCPEGFAGKCCEIDTRATCYEDQGISYRGTWSTAESGAECTNWNSSALAQKPYSGRRPDAIRLGLGNHNYCRNPDRDSKPWCYVFKAGKYSSEFCSTPACSEGNSDCYFGNGSAYRGTHSLTESGASCLPWNSMILIGKVYTAQNPSAQALGLGKHNYCRNPDGDAKPWCHVLKNRRLTWEYCDVPSCSTCGLRQYSQPQFRIKGGLFADIASHPWQAAIFAKHRRSPGERFLCGGILISSCWILSAAHCFQERFPPHHLTVILGRTYRVVPGEEEQKFEVEKYIVHKEFDDDTYDNDIALLQLKSDSSRCAQESSVVRTVCLPPADLQLPDWTECELSGYGKHEALSPFYSERLKEAHVRLYPSSRCTSQHLLNRTVTDNMLCAGDTRSGGPQANLHDACQGDSGGPLVCLNDGRMTLVGIISWGLGCGQKDVPGVYTKVTNYLDWIRDNMRP
In the case of B1, the “clots dissolved / vessels” value (1.0 mg/kg, about 1 tenth of the clinical dose) is reported as 16% and the “blood clots resolved / vessels recanalized” value (intravenous, 2.5 mg/kg) is reported as “about 40%”.

— paper PMC6359636, “Advances in Drug Delivery and Biomaterials: Facts and Vision” (Pharmaceutics, 2019)
